B1: R325 variant of ZnT8 CTD (aa267-369) (domain or fragment, human, UniProt Q8IWU4 267-369, looked up)
chain: LKDFSILLMEGVPKSLNYSGVKELILAVDGVLSVHSLHIWSLTMNQVILSAHVATAASRDSQVVRREIAKALSKSFTMHSLTIQMESPVDQDPDCLFCEDPCD
modifications: amine-reactive Red-NHS dye (Monolith NT.115 labelling kit) on the labelled copy in MST; the titrated copy unlabelled
notes: human zinc transporter ZnT8 (SLC30A8), C-terminal cytosolic domain, residues 267-369, Arg at position 325; numbers count on the full-length human ZnT8 long isoform (Ensembl transcript SLC30A8-002); A TEV protease cleavage site stands between the N-terminal hexahistidine tag and the domain (vector pET6H); Calculated monomer mass with tag and TEV site 13.3 kDa; also called ZnT8cR; apo-ZnT8cR; …
B2: W325 variant of ZnT8 CTD (aa267-369) (domain or fragment, human, UniProt Q8IWU4 267-369, looked up)
chain: LKDFSILLMEGVPKSLNYSGVKELILAVDGVLSVHSLHIWSLTMNQVILSAHVATAASWDSQVVRREIAKALSKSFTMHSLTIQMESPVDQDPDCLFCEDPCD
modifications: amine-reactive Red-NHS dye (Monolith NT.115 labelling kit) on the labelled copy in MST; the titrated copy unlabelled
notes: numbers count on the full-length human ZnT8 long isoform (Ensembl transcript SLC30A8-002); A TEV protease cleavage site stands between the N-terminal hexahistidine tag and the domain (vector pET6H); also called ZnT8cW; apo-ZnT8cW; source: apo form made with TCEP and EDTA; not shown: His6, N-terminal, kept

Tests used:
[1] = target: the molecule itself; assay: native gel or EMSA; native PAGE of the purified proteins; conditions not given
[2] = target: the molecule itself; assay: MST; homodimerisation (dimer to monomers); 100 nM Red-NHS-labelled apo-protein titrated with unlabelled apo-protein of the same variant (180 uM-5.5 nM ZnT8cR or 124 uM-3.8 nM ZnT8cW); 10 mM potassium phosphate pH 8, 60 mM NaCl, 20 mM sucrose, 100 uM TCEP, 1 mM EDTA, 0.05% Tween-20; 25 °C; Monolith NT.115

Protein | stoichiometry N [1] | Kd [2]
B1 | 2 | 4.3 µM
B2 | 2 | 1.8 µM

Reference: paper PMC5947572, “The C‐terminal cytosolic domain of the human zinc transporter ZnT8 and its diabetes risk variant” (The Febs Journal, 2018)
